Experimental data: the supplement of paper PMC10567573

B1: KLHL12 (parent)
chain: SMTTPRCYVGATVLRGRLYAIAGY
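Also: lentivirally expressed fusions sorted by FACS into six bins by GFP to DsRed ratio, PSI derived from sequencing read proportions per bin multiplied by bin number.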

Variants of: B1
Experiment: protein stability index of a GFP-peptide fusion (GPS, HEK-293T) (PSI 1-6); higher = more stable
Conditions: c terminus: a fixed tail appended
For SMTTPRCYVGATVLRGRLYAIQGY [A22Q], the protein stability index was 1.52.
For SMTTPRCYVGATVLRGRLYAISGY [A22S], the protein stability index was 1.26.
For SMTTPRCYVGATVLRGRLYAIEGY [A22E], the protein stability index was 2.3.
In the case of SMTTPRCYVGATVLRGRLYAIVGY [A22V], the protein stability index is reported as 1.94.
Variant SMTTPRCYVGATVLRGRLYAIHGY [A22H] has a protein stability index of 2.68.
Work on SMTTPRCYVGATVLRGRLYAIFGY [A22F] yielded a protein stability index of 2.3.
With SMTTPRCYVGATVLRGRLYAIDGY [A22D] the protein stability index was 2.12.
With SMTTPRCYVGATVLRGRLYAIIGY [A22I] the protein stability index was 3.06.
Work on SMTTPRCYVGATVLRGRLYAICGY [A22C] yielded a protein stability index of 3.97.
SMTTPRCYVGATVLRGRLYEIAGY [A20E] gave a protein stability index of 1.76.
For SMTTPRCYVGATVLRGRLYPIAGY [A20P], the protein stability index was 2.26.
Work on SMTTPRCYVGATVLRGRLYMIAGY [A20M] yielded a protein stability index of 2.23.
For SMTTPRCYVGATVLRGRLYRIAGY [A20R], the protein stability index was 1.34.
For SMTTPRCYVGATVLRGRLYGIAGY [A20G], the protein stability index was 2.11.
SMTTPRCYVGATVLRGRLYKIAGY [A20K] showed a protein stability index of 3.06.
With SMTTPRCYVGATVLRGRLYWIAGY [A20W] the protein stability index was 3.09.
SMTTPRCYVGATVLRGRLYIIAGY [A20I] gave a protein stability index of 2.3.
Variant SMTTPRCYVGATVLRGRLYCIAGY [A20C] has a protein stability index of 2.26.
With SMTTPRCYVGATVLRGRLYDIAGY [A20D] the protein stability index was 1.48.
Work on SMTTPRCYVGATVLRGRLYQIAGY [A20Q] yielded a protein stability index of 2.45.
With SMTTPRCYVGATVLRGRLYYIAGY [A20Y] the protein stability index was 2.41.
SMTTPRCYVGATVLRGRLYNIAGY [A20N] gave a protein stability index of 1.72.
SMTTPRCYVGATVLRGRLYTIAGY [A20T] showed a protein stability index of 1.01.
With SMTTPRCYVGATVLRGRLYVIAGY [A20V] the protein stability index was 3.5.
For SMTTPRCYVGATVLRGRLYHIAGY [A20H], the protein stability index was 1.18.
With SMTTPRCYVGATVLRGRLYFIAGY [A20F] the protein stability index was 2.38.
SMTTPRCYVGATVLAGRLYAIAGY [R15A] gave a protein stability index of 2.33.
For SMTTPRCYVGATVLLGRLYAIAGY [R15L], the protein stability index was 2.21.
Work on SMTTPRCYVGATVLKGRLYAIAGY [R15K] yielded a protein stability index of 2.57.
SMTTPRCYVGATVLWGRLYAIAGY [R15W] showed a protein stability index of 1.66.
SMTTPRCYVGATVLIGRLYAIAGY [R15I] showed a protein stability index of 2.18.
SMTTPRCYVGATVLDGRLYAIAGY [R15D] gave a protein stability index of 2.78.
SMTTPRCYVGATVLVGRLYAIAGY [R15V] gave a protein stability index of 3.43.
SMTTPRCYVGATVLYGRLYAIAGY [R15Y] gave a protein stability index of 3.51.
SMTTPRCYVGATVLPGRLYAIAGY [R15P] gave a protein stability index of 1.88.
In the case of SMTTPRCYVGATVLTGRLYAIAGY [R15T], the protein stability index is reported as 2.62.
SMTTPRCYVGATVLMGRLYAIAGY [R15M] showed a protein stability index of 1.59.
In the case of SMTTPRCYVGATVLNGRLYAIAGY [R15N], the protein stability index is reported as 1.95.
SMTTPRCYVGATVLQGRLYAIAGY [R15Q] gave a protein stability index of 1.46.
In the case of SMTTPRCYVGATVLHGRLYAIAGY [R15H], the protein stability index is reported as 2.64.
With SMTTPRCYVGATVLCGRLYAIAGY [R15C] the protein stability index was 3.81.
Work on SMTTPRCYVGATVLEGRLYAIAGY [R15E] yielded a protein stability index of 2.11.
Variant SMTTPRCYVGATVLGGRLYAIAGY [R15G] has a protein stability index of 2.98.
SMTTPRCYVGATVLSGRLYAIAGY [R15S] showed a protein stability index of 1.63.
SMTTPRCYVGATVLRGRLYAIAPY [G23P] gave a protein stability index of 2.39.
For SMTTPRCYVGATVLRGRLYAIADY [G23D], the protein stability index was 1.64.
SMTTPRCYVGATVLRGRLYAIAMY [G23M] showed a protein stability index of 2.83.
With SMTTPRCYVGATVLRGRLYAIAEY [G23E] the protein stability index was 2.19.
For SMTTPRCYVGATVLRGRLYAIATY [G23T], the protein stability index was 2.54.
SMTTPRCYVGATVLRGRLYAIARY [G23R] showed a protein stability index of 1.97.
SMTTPRCYVGATVLRGRLYAIAWY [G23W] showed a protein stability index of 2.54.
For SMTTPRCYVGATVLRGRLYAIALY [G23L], the protein stability index was 3.25.
SMTTPRCYVGATVLRGRLYAIAHY [G23H] showed a protein stability index of 3.9.
For SMTTPRCYVGATVLRGRLYAIAIY [G23I], the protein stability index was 1.86.
Variant SMTTPRCYVGATVLRGRLYAIAKY [G23K] has a protein stability index of 1.35.
SMTTPRCYVGATVLRGRLYAIAQY [G23Q] gave a protein stability index of 3.57.
In the case of SMTTPRCYVGATVLRGRLYAIAFY [G23F], the protein stability index is reported as 2.6.
With SMTTPRCYVGATVLRGRLYAIAAY [G23A] the protein stability index was 3.75.
Variant SMTTPRCYVGATVLRGRLYAIASY [G23S] has a protein stability index of 2.08.
With SMTTPRCYVGATVLRGRLYAIANY [G23N] the protein stability index was 1.78.
For SMTTPRCYVGATVLRGPLYAIAGY [R17P], the protein stability index was 2.42.
SMTTPRCYVGATVLRGYLYAIAGY [R17Y] gave a protein stability index of 2.26.
With SMTTPRCYVGATVLRGGLYAIAGY [R17G] the protein stability index was 2.27.
Variant SMTTPRCYVGATVLRGNLYAIAGY [R17N] has a protein stability index of 2.17.
Variant SMTTPRCYVGATVLRGSLYAIAGY [R17S] has a protein stability index of 3.1.
SMTTPRCYVGATVLRGELYAIAGY [R17E] gave a protein stability index of 1.68.
Work on SMTTPRCYVGATVLRGALYAIAGY [R17A] yielded a protein stability index of 1.73.
For SMTTPRCYVGATVLRGCLYAIAGY [R17C], the protein stability index was 2.04.
For SMTTPRCYVGATVLRGHLYAIAGY [R17H], the protein stability index was 2.17.
Work on SMTTPRCYVGATVLRGFLYAIAGY [R17F] yielded a protein stability index of 3.17.
Variant SMTTPRCYVGATVLRGMLYAIAGY [R17M] has a protein stability index of 3.27.
Work on SMTTPRCYVGATVLRGVLYAIAGY [R17V] yielded a protein stability index of 2.35.
Work on SMTTPRCYVGATVLRGQLYAIAGY [R17Q] yielded a protein stability index of 1.85.
Work on SMTTPRCYVGATVLRGTLYAIAGY [R17T] yielded a protein stability index of 1.92.
SMTTPRCYVGATVLRGDLYAIAGY [R17D] gave a protein stability index of 1.88.
Work on SMTTPRCYVGATVLRGILYAIAGY [R17I] yielded a protein stability index of 3.46.
Variant SMTTPRCYVGATVLRGRLLAIAGY [Y19L] has a protein stability index of 2.15.
SMTTPRCYVGATVLRGRLIAIAGY [Y19I] gave a protein stability index of 3.51.
For SMTTPRCYVGATVLRGRLAAIAGY [Y19A], the protein stability index was 1.65.
Work on SMTTPRCYVGATVLRGRLQAIAGY [Y19Q] yielded a protein stability index of 2.11.
Work on SMTTPRCYVGATVLRGRLMAIAGY [Y19M] yielded a protein stability index of 1.79.
Variant SMTTPRCYVGATVLRGRLHAIAGY [Y19H] has a protein stability index of 1.72.
SMTTPRCYVGATVLRGRLGAIAGY [Y19G] gave a protein stability index of 2.81.
Work on SMTTPRCYVGATVLRGRLSAIAGY [Y19S] yielded a protein stability index of 2.
For SMTTPRCYVGATVLRGRLRAIAGY [Y19R], the protein stability index was 1.77.
Work on SMTTPRCYVGATVLRGRLCAIAGY [Y19C] yielded a protein stability index of 2.91.
SMTTPRCYVGATVLRGRLEAIAGY [Y19E] showed a protein stability index of 2.19.
SMTTPRCYVGATVLRGRLDAIAGY [Y19D] gave a protein stability index of 1.99.
For SMTTPRCYVGATVLRGRLNAIAGY [Y19N], the protein stability index was 2.66.
In the case of SMTTPRCYVGATVLRGRLFAIAGY [Y19F], the protein stability index is reported as 2.02.
With SMTTPRCYVGATVLRGRLPAIAGY [Y19P] the protein stability index was 2.22.
SMTTPRCYVGATVLRGRLWAIAGY [Y19W] showed a protein stability index of 3.23.
For SMTTPRCYVGATVLRGRLKAIAGY [Y19K], the protein stability index was 1.79.
Variant SMTTPRCYVGATVLRGRLTAIAGY [Y19T] has a protein stability index of 2.02.
